Laboratory results published in the supplement of paper PMC12042874.
± gives the uncertainty stated by the source.

Experiment: amyloid nucleation score (Sup35N fusion, yeast selection) (log enrichment); library NNK3; higher = more nucleation; inactive = no reads after selection
Summary of the method: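 Three technical output replicates were used for random libraries. Psi-negative yeast expressing peptides of 20 random codons fused to Sup35N were induced with 100 μM copper sulfate for 24 hours and grown 7 days at 30°C on medium lacking adenine and uracil, and input and output plasmid inserts were Illumina-sequenced, excluding sequences with under 100 input reads. The nucleation score is the DiMSum log enrichment of output over input reads, centred on the mode score of non-aggregating sequences.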

Substance | amyloid nucleation score
YEPTSAK | inactive
MRRGEDCVV | inactive
CWTTINVSGCPNVGGGTVLQ | 0.9 ± 0.17
YVYDCYAAQHVY | -0.213 ± 0.77
CAHVSFKLVFSINWWSNLLN | inactive
GGYSQKLYILYDYLFENYYS | inactive
SSAIMCWRFMLMNSILITTP | inactive
NVLLCINTRYR | 1.35 ± 0.077
AFSFMLACWQRRIAQALAYL | inactive
FHYGLSWLSSTKGSYVFYIG | inactive
VAQSFEIGYYSGLYIYYCSV | inactive
CMDKFWCVVYA | -0.416 ± 1.5
RFFVNL | inactive
CSVLDKEVFGGTSQDSDSYL | inactive
RTWDYVLLGLLLLDYYRILA | inactive
WIWSGMYSNWPNSAPVNIR | inactive
MLWCLSVSIDFYGGDNRMLT | inactive
IVDFFGFNFCSWLSVFSDSR | 2.48 ± 0.056
LLNDCYIRNKGLPHDERVWG | inactive
RLKCHNNMNYSSYDLH | inactive
ILTGILDFFFGTSNSRYRNG | inactive
IIPVTSRDYSRKPYPTLERV | inactive
TYGNLFNNCDKIYRRQNRSL | inactive
VYNVTITNYRNLPAM | 2.24 ± 0.088

Substance | amyloid nucleation score
SYTSFSHSPCTVLMKTWPPK | inactive
HNRLSQVTDQLGRLVSRSLR | inactive
WCRCSFVVLHSVVVCSFGTR | -0.074 ± 0.69
RNCQRESGTLYNYHVARS | inactive
RSRLCWED | -0.029 ± 0.5
TFCSTCGDLWGSDFKCGFRV | inactive
VRAVLIAYGLK | inactive
CVTSVVFRFRQHGYTRKGMA | 1.27 ± 0.15
WTGMPRTGWDGPRYKALSRS | inactive
NNSFNYGNHGRSSVFNNLRC | inactive
NISMVTSEDYMRDLLIFSTG | inactive
SVERVLLRTVASVGGDVDVN | inactive
FTWARETVPVVQNWFGTREV | inactive
TFSFILRSNLLYENRSVDRA | 1.57 ± 0.077
SIVSRLLDSIPMMIMSFYFG | inactive
TNNRKRLYYWFERVTSE | inactive
EVFSDVY | inactive
ARVLDAWSYRVARKNLWESL | inactive
SVAGRCVSWNQRGKGLRNAR | inactive
IYCTFAAFSHCQQWKNLFWR | -0.456 ± 1.1
LVYNTDQSTRYAMTDYDADL | inactive
VHSFLKYGGNSAIGLLPEDS | inactive
EQSLFES | inactive
FVRTLCCLAYVWHYDLRYC | 0.406 ± 0.31

Substance | amyloid nucleation score
FRSNGSIWVRGSETFTIAP | inactive
YKCMLYSFG | inactive
NWENILGDSYLCVKWSL | inactive
WYLMCWCCLKVPVAQLM | 0.671 ± 0.19
RHWTGCSNQESRTGCGACCI | inactive
RLLHCGRILWGFVNDLMIML | inactive
AGWCYFASSVLVRTSWSQCA | inactive
AGQNQVRDGKVIVKACSCMS | inactive
QFFCFNRLWDWVTFRVIDMS | inactive
HCSCRNWSLMLGRFFVFVTC | inactive
LWSWDDIHPFCLILLLTRCP | inactive
LENLLGMWVSCAWLSGSHFV | inactive
AKTSADYTYVASRTDFGCVN | inactive
EGNCELCRLWYNWGRVAGNK | 0.457 ± 0.2
LIASLRIWPRESMPR | inactive
PKFFEAPQLQLFDAYSSMDF | inactive
TVYELYVDLAVRRSAFAFLP | 0.744 ± 0.15
TWILSMWRSCIPNL | inactive
GQWLSDTR | inactive
MSICFDPWTRPKCGVYCRCS | inactive
LNDGALDGQSTDALMGMEMR | inactive
YEAYV | inactive
FLRLCLVVRLRCVVISMGNY | inactive
FLCMSLATRMLTFRLFPTNL | inactive

Substance | amyloid nucleation score
SWWKDLVYD | inactive
NMYSCNSGGHKQLCLKVGDL | inactive
VGLWVAYYGRETNRVDNYVT | inactive
YVWLGDLMSVRCYYWVTW | inactive
REASCGIDRMIRRCTERLSC | inactive
LNWMRFYVMDMVTFGVWSDQ | 0.152 ± 0.31
IHCSSWFELS | inactive
NPDAYKERTDLVWSVVVLLW | inactive
RSPEDFSGTCHAGRCSWVHG | -0.044 ± 0.39
SLLYFLRNVKC | inactive
HTESTGLSTPWVHL | inactive
CPESLWNKSYVYAGALTFLR | inactive
FHPFMCSYGSGWDGRLVHCG | inactive
VCQGFSKFLRWSQVRFLSMA | -0.288 ± 1.4
GANFVCSVECRLVRRNSRYD | 0.511 ± 0.21
QLKSVRACGRRGPLSQ | inactive
KLQHIFLFFDRS | 1.1 ± 0.11
HNPVG | 1.23 ± 0.08
VLLVHGKEWTEMLAHTLRCG | inactive
LNLVVRHFPTNR | inactive
YYRFLQWSGGNLWTPRWAPC | inactive
SLVYACSSEL | inactive
IKSKNAVCCHFATTMQDSLT | inactive
LDMPCILLYLRSNWGRFG | inactive

Substance | amyloid nucleation score
FPWYAIFSHSMLCVDIQDF | 0.958 ± 0.2
MRRVGIWYVRR | inactive
SGIQVRGQTSIVLLNF | 2.41 ± 0.052
LDLLMGV | inactive
CSGFRVNSSTVIGYLSILLK | inactive
YVVELLVDSGYVPLCTTGQG | inactive
MEVKNSRLDSVAKYQSISFL | inactive
YSFRVTYEGPHAN | 0.873 ± 0.14
VWCYFVQYHGIISLSFIAFR | inactive
LLTVSLPMDGST | inactive
FGMKTYRLQIGYNITVCHSI | -0.603 ± 0.58
LPSLQTG | inactive
TYLLYCCVVVR | inactive
TIAHYTVP | inactive
HSRLFLGNVTCYWVHEVSLI | inactive
WWCMNRCEDAASINGIVARK | inactive
WSAIVDSWCDSSRRVEIVVR | inactive
RDVFINPTTGQALNVWACCR | inactive
SLWNDFMCQSCLGVIVNGAA | 0.253 ± 0.6
FSSMVNVYSLLKVFF | inactive
